Changes are numbered by the printed parent chain.
B1: HVHP414S (antibody, V domains shown)
VH: DVQLVQSGGGLVKPGGSLRLSCTASGFPFSNAWMSWVRQAPGKGLEWVCRITSKTDGGTTDYVAPVKGRFTCSRDDSKNTLYLQMNSLKTEDTAVYYCTTDQANAFDIWGQGTMVTVSS
notes: Cys49/Cys69 (Kabat) mutant of HVHP414; VH single-domain antibody; tag not specified
B2: HVHP421S (antibody, V domains shown)
VH: QLQLQESGGGVVQPGRSLRLSCAASGFTFSSYAMSWVRQAPGKGLEWVCAISGSGGSTYYADSVKGRFTCSRDNSKNTLYLQMNSLRAEDTAVYYCAKDGKGGSSGYDHPDYWGQGTLVTVSS
notes: Cys49/Cys69 (Kabat) mutant of HVHP421; VH single-domain antibody; tag not specified
B3: HVHP430S (antibody, V domains shown)
VH: QVQLVESGGGLIKPGGSLRLSCAASGFTFSNYAMSWVRQAPGKGLEWVCAISSSGGSTYYADSVKGRFTCSRDNSKNTVYLQMNSLRAEDTAVYYCVREEYRCSGTSCPGAFDIWGQGTMVTVSS
notes: Cys49/Cys69 (Kabat) mutant of HVHP430; VH single-domain antibody; tag not specified
B4: HVHAm302 (antibody, V domains shown)
VH: QVQLVESGGGLIKPGGSLRLSCAASGDTVSDESMTWVRQAPGKGLEWVSAISSSGGSTYYADSVKGRFTISRDNSKNTVYLQMNSLRAEDTAVYYCVTDNRSCQTSLCTSTTRSWGQGTMVTVSS
notes: Human VH single-domain antibody (wild-type), tested alone; monomer peak used for SPR; tag not specified
B5: HVHAm302S (antibody, V domains shown)
VH: B4 VH with S49C, I70C
notes: Cys49/Cys69 (Kabat) mutant of HVHAm302; VH single-domain antibody; tag not specified
B6: HVHPC235 (antibody, V domains shown)
VH: QVQLVESGGGLIKPGGSLRLSCAASGFSVISESMTWVRQAPGKGLEWVSAISSSGGSTYYADSVKGRFTISRDNSKNTVHLQMNSLRADDTAVYYCAAKKIDGARYDYWGQGTMVTVSS
notes: Human VH single-domain antibody (wild-type), tested alone; tag not specified; also called HVHAmC235; HVHC235
B7: HVHP420S (antibody, V domains shown)
VH: QVQLVESGGGLVKPGGSLRLSCAASGFTFSNAWMTWVRQAPGKGLEWVCRIKTKTDGGTTDYAAPVKGRFTCSRDDSKNTLYLQMNSLKTEDTAVYYCTTDRDHSSGSWGQGTLVTVSS
notes: Cys49/Cys69 (Kabat) mutant of HVHP420; VH single-domain antibody; tag not specified
B8: HVHP413S (antibody, V domains shown)
VH: QVQLVQSGGGLVKPGGSLRLSCAASGFTFSDYYMSWVRQAPGKGLEWVCFIYSGGSTYYADSVKGRFTCSRDNSKNTLYLQMNSLRAEDTAVYYCARESRVGGGAFDIWGQGTMVTVSS
notes: Cys49/Cys69 (Kabat) mutant of HVHP413; VH single-domain antibody; tag not specified
B9: HVHAm431 (antibody, V domains shown)
VH: QVQLVESGGGLIKPGGSLRLSCAASGYTVSSECMGWVRQAPGKGLEWVSAISSSGGSTYYADSVKGRFTISRDNSKNTVYLQMNSLRAEDTAVYYCVRDSKNCHDKDCTRPYCSWGQGTMVTVSS
notes: Human VH single-domain antibody (wild-type), tested alone; tag not specified
B10: HVHAm431S (antibody, V domains shown)
VH: B9 VH with S49C, G55S, I70C
notes: Cys49/Cys69 (Kabat) mutant of HVHAm431; VH single-domain antibody; tag not specified
B11: HVHP428S (antibody, V domains shown)
VH: QLQLQESGGGLVQPGGSLRLSCAASGFTFSSYAMSWFRQAPGKGLEWVCFIRSKAYGGTTEYAASVKGRFTCSRDDSKSIAYLQMNSLRAEDTAMYYCARRAKDGYNSPEDYWGQGTLVTVSS
notes: Cys49/Cys69 (Kabat) mutant of HVHP428; VH single-domain antibody; tag not specified
B12: HVHP426S (antibody, V domains shown)
VH: QVQLVQSGGGVVQPGRSLRLSCAASGFIVDGYAMHWVRQAPGQGLEWVCVTNNGGSTSYADSVKGRFTCSRDNSKNTVYLQMNSLRAEDTAVYYCARQSITGPTGAFDIWGQGTMVTVSS
notes: Cys49/Cys69 (Kabat) mutant of HVHP426; VH single-domain antibody; tag not specified
B13: HVHB82S (antibody, V domains shown)
VH: QVQLQESGGGLVQPGGSLRLSCAASGFTFSSYAMSWVRQAPGKGLEWVCAISGSGGSTYYADSVKGRFTCSRDNSKNTLYLQMNSLRAEDTAVYYCGTDMEVWGKGTTVTVSS
notes: Cys49/Cys69 (Kabat) mutant of HVHB82; VH single-domain antibody; tag not specified
B14: HVHAm427 (antibody, V domains shown)
VH: QVQLVESGGGLIKPGGSLRLSCAASGVTLSPECMAWVRQAPGKGLEWVSAISSSGGSTYYADSVKGRFTISRDNSKNTVYLQMNSLRAEDTAVYYCVSCEGENAFWGQGTMVTVSS
notes: as for B9
B15: HVHAm427S (antibody, V domains shown)
VH: B14 VH with S49C, I70C
notes: Cys49/Cys69 (Kabat) mutant of HVHAm427; VH single-domain antibody; tag not specified

molecular target: T1, protein A (UniProt P38507 37-477); experiment: SPR (Biacore 3000), VH over immobilized protein A
T1 construct: Bought (Pierce); immobilized on CM5 chip by amine coupling; also called recombinant protein A
Procedure: Immobilizations were carried out at 50 μg/mL in 10 mM acetate buffer, pH 4.5, using the amine coupling kit supplied by the manufacturer (GE Healthcare). All measurements were carried out at 25° C. in HBS-EP buffer at a flow rate of 50 μL/min. Surfaces were regenerated by washing with the running buffer.

Binder	Kd [nM]
B1	1800
B2	2800
B3	7700
B4	3000
B5	10000
B6	300
B7	2200
B8	1500
B9	4000
B10	8000
B11	1600
B12	3400
B13	1200
B14	1600
B15	4000
